Reference: patent US20060194276A1 (GOVERMMENT OF THE USA AS REPRESENTED BY THE SECRETARY OF …, published 2006)

Molecular target: T1, human CD22 (human, UniProt P20273 20-847)
T1 construct: whole, on cells; Always presented on living CD22+ tumor cells (Raji for all numbers); also called CD22 antigen; target antigen
T1 sequence (looked up): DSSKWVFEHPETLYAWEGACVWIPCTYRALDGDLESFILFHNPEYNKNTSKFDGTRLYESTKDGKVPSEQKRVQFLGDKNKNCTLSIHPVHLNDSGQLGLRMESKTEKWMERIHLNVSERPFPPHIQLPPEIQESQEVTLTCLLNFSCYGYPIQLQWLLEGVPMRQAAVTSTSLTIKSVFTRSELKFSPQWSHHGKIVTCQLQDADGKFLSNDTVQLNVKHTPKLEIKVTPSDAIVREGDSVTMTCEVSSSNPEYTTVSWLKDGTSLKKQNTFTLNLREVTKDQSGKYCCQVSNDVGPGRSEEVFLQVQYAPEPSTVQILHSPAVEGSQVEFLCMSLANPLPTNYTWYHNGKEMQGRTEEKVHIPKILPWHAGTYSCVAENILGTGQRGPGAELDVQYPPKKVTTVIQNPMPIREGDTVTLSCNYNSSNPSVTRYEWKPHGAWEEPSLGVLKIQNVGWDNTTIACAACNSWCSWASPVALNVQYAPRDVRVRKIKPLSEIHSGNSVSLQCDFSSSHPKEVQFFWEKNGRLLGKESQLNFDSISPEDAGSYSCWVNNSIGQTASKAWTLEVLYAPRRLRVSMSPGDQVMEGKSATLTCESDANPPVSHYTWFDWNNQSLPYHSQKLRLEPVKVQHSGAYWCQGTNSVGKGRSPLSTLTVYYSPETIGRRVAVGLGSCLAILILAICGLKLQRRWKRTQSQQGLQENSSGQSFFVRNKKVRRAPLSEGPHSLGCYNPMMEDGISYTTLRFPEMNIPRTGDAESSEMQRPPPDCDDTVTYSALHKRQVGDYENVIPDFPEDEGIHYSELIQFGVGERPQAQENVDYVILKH
Experiment: flow cytometry on CD22+ Raji cells, equilibrium binding, non-linear regression
Description: Specific binding of the constructs was determined by flow cytometry using the human CD22⁺ B cell lines Raji, Ramos, Daudi and CA46. Human T cell lines Jurkat and HUT102 were used as negative controls. Cells (5×10⁵) were incubated with 100 μl of a sample containing either the scFv fragments, or control antibodies, in FACS buffer (PBS, 0.1% NaN₃, 2% FBS) for 45 min at 4° C. in round bottom 96-well microtiter plates. Cells were pelleted at 200 g at 4° C. for 5 min and washed twice with 200 μl FACS buffer. […] Background fluorescence was determined by using cells incubated with 9E10 antibody and FITC-labeled anti-mouse antibody under the same conditions. Stained cells were analyzed on a FACScan Flow Cytometer (BD Bioscience, San Jose, Calif.), and median fluorescence intensity (MFI) was calculated using the CellQuest™ software (BD Bioscience).
Affinity measurements were performed as previously described (Benedict et al., J Immunol Methods 201:223-231, 1997) with the following modifications: Varying concentrations of antibodies were incubated in triplicate with 5×10⁵ Raji cells at room temperature in FACS buffer for two hours. Bound antibodies were detected under the same conditions, as described above. After two final washing steps, cells were fixed in PBS containing 2% paraformaldehyde for 15 minutes at room temperature and analyzed by flow cytometry. […]

B1: murine monoclonal antibody RFB4 (antibody, V domains shown)
VH: EVQLVESGGGLVKPGGSLKLSCAASGFAFSIYDMSWVRQTPEKRLEWVAYISSGGGTTYYPDTVKGRFTISRDNAKNTLYLQMSSLKSEDTAMYYCARHSGYGSSYGVLFAYWGQGTLVTVSA
VL: DIQMTQTTSSLSASLGDRVTISCRASQDISNYLNWYQQKPDGTVKLLIYYTSILHSGVPSRFSGSGSGTDYSLTISNLEQEDFATYFCQQGNTLPWTFGGGTKLEIK
notes: also called mAb RFB4; murine mAb RFB4
Kd: 2 nM
